The source of these data is IntAct's records for PubMed 25910212.

B1: Probetacellulin (Homo sapiens), P35070 (parent)
chain: MDRAARCSGASSLPLLLALALGLVILHCVVADGNSTRSPETNGLLCGDPEENCAATTTQSKRKGHFSRCPKQYKHYCIKGRCRFVVAEQTPSCVCDEGYIGARCERVDLFYLRGDRGQILVICLIAVMVVFIILVIGVCTCCHPLRKRRKRKKKEEEMETLGKDITPINEDIEETNIA
B2: B-cell antigen receptor complex-associated protein beta chain (Homo sapiens), P40259 (parent)
chain: MARLALSPVPSHWMVALLLLLSAEPVPAARSEDRYRNPKGSACSRIWQSPRFIARKRGFTVKMHCYMNSASGNVSWLWKQEMDENPQQLKLEKGRMEESQNESLATLTIQGIRFEDNGIYFCQQKCNNTSEVYQGCGTELRVMGFSTLAQLKQRNTLKDGIIMIQTLLIILFIIVPIFLLLDKDDSKAGMEEDHTYEGLDIDQTATYEDIVTLRTGEVKWSVGEHPGQE
B3: Cyclin-dependent kinase 4 (Homo sapiens), P11802 (parent)
chain: MATSRYEPVAEIGVGAYGTVYKARDPHSGHFVALKSVRVPNGGGGGGGLPISTVREVALLRRLEAFEHPNVVRLMDVCATSRTDREIKVTLVFEHVDQDLRTYLDKAPPPGLPAETIKDLMRQFLRGLDFLHANCIVHRDLKPENILVTSGGTVKLADFGLARIYSYQMALTPVVVTLWYRAPEVLLQSTYATPVDMWSVGCIFAEMFRRKPLFCGNSEADQLGKIFDLIGLPPEDDWPRDVSLPRGAFPPRGPRPVQSVVPEMEESGAQLLLEMLTFNPHKRISAFRALQHSYLHKDEGNPE
partner: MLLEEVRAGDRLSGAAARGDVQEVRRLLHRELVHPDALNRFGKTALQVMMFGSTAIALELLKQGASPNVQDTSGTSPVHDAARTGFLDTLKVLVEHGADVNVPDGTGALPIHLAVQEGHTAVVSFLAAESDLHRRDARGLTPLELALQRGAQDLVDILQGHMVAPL
B4: Apolipoprotein D (Homo sapiens), P05090 (parent)
chain: MVMLLLLLSALAGLFGAAEGQAFHLGKCPNPPVQENFDVNKYLGRWYEIEKIPTTFENGRCIQANYSLMENGKIKVLNQELRADGTVNQIEGEATPVNLTEPAKLEVKFSWFMPSAPYWILATDYENYALVYSCTCIIQLFHVDFAWILARNPNLPPETVDSLKNILTSNNIDVKKMTVTDQVNCPKLS
partner: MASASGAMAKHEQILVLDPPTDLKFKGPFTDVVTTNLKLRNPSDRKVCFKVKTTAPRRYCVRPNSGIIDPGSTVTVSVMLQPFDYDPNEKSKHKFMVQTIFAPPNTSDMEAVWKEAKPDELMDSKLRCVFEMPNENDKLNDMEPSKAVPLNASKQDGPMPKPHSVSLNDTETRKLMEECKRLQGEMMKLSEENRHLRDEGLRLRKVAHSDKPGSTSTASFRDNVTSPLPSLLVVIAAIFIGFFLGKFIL
B5: EGF-containing fibulin-like extracellular matrix protein 1 (Homo sapiens), Q12805 (parent)
chain: MLKALFLTMLTLALVKSQDTEETITYTQCTDGYEWDPVRQQCKDIDECDIVPDACKGGMKCVNHYGGYLCLPKTAQIIVNNEQPQQETQPAEGTSGATTGVVAASSMATSGVLPGGGFVASAAAVAGPEMQTGRNNFVIRRNPADPQRIPSNPSHRIQCAAGYEQSEHNVCQDIDECTAGTHNCRADQVCINLRGSFACQCPPGYQKRGEQCVDIDECTIPPYCHQRCVNTPGSFYCQCSPGFQLAANNYTCVDINECDASNQCAQQCYNILGSFICQCNQGYELSSDRLNCEDIDECRTSSYLCQYQCVNEPGKFSCMCPQGYQVVRSRTCQDINECETTNECREDEMCWNYHGGFRCYPRNPCQDPYILTPENRCVCPVSNAMCRELPQSIVYKYMSIRSDRSVPSDIFQIQATTIYANTINTFRIKSGNENGEFYLRQTSPVSAMLVLVKSLSGPREHIVDLEMLTVSSIGTFRTSSVLRLTIIVGPFSF
B6: Krev interaction trapped protein 1 (Homo sapiens), O00522 (parent)
chain: MGNPENIEDAYVAVIRPKNTASLNSREYRAKSYEILLHEVPIEGQKKKRKKVLLETKLQGNSEITQGILDYVVETTKPISPANQGIRGKRVVLMKKFPLDGEKMGREASLFIVPSVVKDNTKYTYTPGCPIFYCLQDIMRVCSESSTHFATLTARMLIALDKWLDERHAQSHFIPALFRPSPLERIKTNVINPAYATESGQTENSLHMGYSALEIKSKMLALEKADTCIYNPLFGSDLQYTNRVDKVVINPYFGLGAPDYSKIQIPKQEKWQRSMSSVTEDKERQWVDDFPLHRSACEGDSELLSRLLSERFSVNQLDSDHWAPIHYACWYGKVEATRILLEKGKCNPNLLNGQLSSPLHFAAGGGHAEIVQILLNHPETDRHITDQQGRSPLNICEENKQNNWEEAAKLLKEAINKPYEKVRIYRMDGSYRSVELKHGNNTTVQQIMEGMRLSQETQQYFTIWICSENLSLQLKPYHKPLQHVRDWPEILAELTNLDPQRETPQLFLRRDVRLPLEVEKQIEDPLAILILFDEARYNLLKGFYTAPDAKLITLASLLLQIVYGNYESKKHKQGFLNEENLKSIVPVTKLKSKAPHWTNRILHEYKNLSTSEGVSKEMHHLQRMFLQNCWEIPTYGAAFFTGQIFTKASPSNHKVIPVYVGVNIKGLHLLNMETKALLISLKYGCFMWQLGDTDTCFQIHSMENKMSFIVHTKQAGLVVKLLMKLNGQLMPTERNS

The variants in the first experiment derive from B1. Particulars: with sgta_human SGTA.
Target sequence in this assay (O43765 whole entry): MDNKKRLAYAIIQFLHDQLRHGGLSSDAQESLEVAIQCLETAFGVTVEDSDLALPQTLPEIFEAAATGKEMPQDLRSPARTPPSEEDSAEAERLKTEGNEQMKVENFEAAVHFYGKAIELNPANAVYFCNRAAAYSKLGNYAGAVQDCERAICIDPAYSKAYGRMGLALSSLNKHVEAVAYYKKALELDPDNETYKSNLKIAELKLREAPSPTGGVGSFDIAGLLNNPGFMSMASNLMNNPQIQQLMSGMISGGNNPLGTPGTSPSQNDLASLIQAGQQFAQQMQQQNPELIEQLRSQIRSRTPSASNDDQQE
On to MDRAARGSGASSLPLLLALALGLVILHCVVADGNSTRSPETNGLLCGDPEENCAATTTQSKRKGHFSRCPKQYKHYCIKGRCRFVVAEQTPSCVCDEGYIGARCERVDLFYLRGDRGQILVICLIAVMVVFIILVIGVCTCCHPLRKRRKRKKKEEEMETLGKDITPINEDIEETNIA [C7G], for which the “effect of a mutation on the interaction” value was “with no effect”.

Variants of B2 are the subject of the next experiment. The settings on record: with sgta_human SGTA.
Target sequence in this assay (O43765 whole entry): as the sequence (O43765 whole entry) above
Consider MARLALSPVPSHWMVALLLLLSAEPVPAARSEDRYRNPKGSACSRIWQSPRFIARKRGFTVKMHCYMNSASGNVSWLWKQEMDENPQQLKLEKGRMEESQNESLATLTIQGIRFEDNGIYFCQQKCNNTSEVYQGCSTELRVMGFSTLAQLKQRNTLKDGIIMIQTLLIILFIIVPIFLLLDKDDSKAGMEEDHTYEGLDIDQTATYEDIVTLRTGEVKWSVGEHPGQE [G137S], for which the “effect of a mutation on the interaction” value was “disrupting interaction strength”.

Variants of B3 are the subject of another experiment. The settings on record: with cdn2d_human CDKN2D.
With MATSRYEPVAEIGVGAYGTVYKARDPHSGHFVALKSVRVPSGGGGGGGLPISTVREVALLRRLEAFEHPNVVRLMDVCATSRTDREIKVTLVFEHVDQDLRTYLDKAPPPGLPAETIKDLMRQFLRGLDFLHANCIVHRDLKPENILVTSGGTVKLADFGLARIYSYQMALTPVVVTLWYRAPEVLLQSTYATPVDMWSVGCIFAEMFRRKPLFCGNSEADQLGKIFDLIGLPPEDDWPRDVSLPRGAFPPRGPRPVQSVVPEMEESGAQLLLEMLTFNPHKRISAFRALQHSYLHKDEGNPE [N41S], the “effect of a mutation on the interaction” value was “with no effect”. Turning to MATSRYEPVAEIGVGAYGTVYKAHDPHSGHFVALKSVRVPNGGGGGGGLPISTVREVALLRRLEAFEHPNVVRLMDVCATSRTDREIKVTLVFEHVDQDLRTYLDKAPPPGLPAETIKDLMRQFLRGLDFLHANCIVHRDLKPENILVTSGGTVKLADFGLARIYSYQMALTPVVVTLWYRAPEVLLQSTYATPVDMWSVGCIFAEMFRRKPLFCGNSEADQLGKIFDLIGLPPEDDWPRDVSLPRGAFPPRGPRPVQSVVPEMEESGAQLLLEMLTFNPHKRISAFRALQHSYLHKDEGNPE [R24H], the “effect of a mutation on the interaction” value is on record as “with no effect”.

For MATSRYEPVAEIGVGAYGTVYKACDPHSGHFVALKSVRVPNGGGGGGGLPISTVREVALLRRLEAFEHPNVVRLMDVCATSRTDREIKVTLVFEHVDQDLRTYLDKAPPPGLPAETIKDLMRQFLRGLDFLHANCIVHRDLKPENILVTSGGTVKLADFGLARIYSYQMALTPVVVTLWYRAPEVLLQSTYATPVDMWSVGCIFAEMFRRKPLFCGNSEADQLGKIFDLIGLPPEDDWPRDVSLPRGAFPPRGPRPVQSVVPEMEESGAQLLLEMLTFNPHKRISAFRALQHSYLHKDEGNPE [R24C], the “effect of a mutation on the interaction” value was “with no effect”. Consider MATSRYEPVAEIGVGAYGTVYKARDPHSGHFVALKSVRVPNGGGGGGGLPINTVREVALLRRLEAFEHPNVVRLMDVCATSRTDREIKVTLVFEHVDQDLRTYLDKAPPPGLPAETIKDLMRQFLRGLDFLHANCIVHRDLKPENILVTSGGTVKLADFGLARIYSYQMALTPVVVTLWYRAPEVLLQSTYATPVDMWSVGCIFAEMFRRKPLFCGNSEADQLGKIFDLIGLPPEDDWPRDVSLPRGAFPPRGPRPVQSVVPEMEESGAQLLLEMLTFNPHKRISAFRALQHSYLHKDEGNPE [S52N], for which the “effect of a mutation on the interaction” value is listed as “with no effect”.

Variants of B4 are the subject of a further experiment. The settings on record: with vapa_human VAPA.
Consider F56V, for which the “effect of a mutation on the interaction” value is “with no effect”.

In another experiment the parent is B5. Particulars: with sgta_human SGTA.
Target sequence in this assay (O43765 whole entry): as the sequence (O43765 whole entry) above
For the variant MLKALFLTMLTLALVKSQDTEETITYTQCTDGYEWDPVRQQCKDIDECDIVPDACKGGMKCVNHYGGYLCLPKTAQIIVNNEQPQQETQPAEGTSGATTGVVAASSMATSGVLPGGGFVASAAAVAGPEMQTGRNNFVIRRNPADPQRIPSNPSHRIQCAAGYEQSEHNVCQDIDECTAGTHNCRADQVCINLRGSFACQCPPGYQKRGEQCVDIDECTIPPYCHQRCVNTPGSFYCQCSPGFQLAANNYTCVDINECDASNQCAQQCYNILGSFICQCNQGYELSSDRLNCEDIDECRTSSYLCQYQCVNEPGKFSCMCPQGYQVVRSRTCQDINECETTNECWEDEMCWNYHGGFRCYPRNPCQDPYILTPENRCVCPVSNAMCRELPQSIVYKYMSIRSDRSVPSDIFQIQATTIYANTINTFRIKSGNENGEFYLRQTSPVSAMLVLVKSLSGPREHIVDLEMLTVSSIGTFRTSSVLRLTIIVGPFSF [R345W], the “effect of a mutation on the interaction” value is on record as “with no effect”.

In the next experiment the parent is B5. The settings on record: with meox2_human MEOX2, P50222.
meox2_human MEOX2, P50222, sequence (P50222 whole entry): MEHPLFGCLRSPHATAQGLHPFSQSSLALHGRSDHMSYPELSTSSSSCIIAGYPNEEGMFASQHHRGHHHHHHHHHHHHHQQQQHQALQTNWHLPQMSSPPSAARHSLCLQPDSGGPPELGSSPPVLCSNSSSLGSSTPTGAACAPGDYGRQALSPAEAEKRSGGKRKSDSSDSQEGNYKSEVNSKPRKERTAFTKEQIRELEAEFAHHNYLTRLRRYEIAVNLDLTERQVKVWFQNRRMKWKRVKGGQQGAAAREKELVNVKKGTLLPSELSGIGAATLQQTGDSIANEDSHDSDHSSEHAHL
Regarding MLKALFLTMLTLALVKSQDTEETITYTQCTDGYEWDPVRQQCKDIDECDIVPDACKGGMKCVNHYGGYLCLPKTAQIIVNNEQPQQETQPAEGTSGATTGVVAASSMATSGVLPGGGFVASAAAVAGPEMQTGRNNFVIRRNPADPQRIPSNPSHRIQCAAGYEQSEHNVCQDIDECTAGTHNCRADQVCINLRGSFACQCPPGYQKRGEQCVDIDECTIPPYCHQRCVNTPGSFYCQCSPGFQLAANNYTCVDINECDASNQCAQQCYNILGSFICQCNQGYELSSDRLNCEDIDECRTSSYLCQYQCVNEPGKFSCMCPQGYQVVRSRTCQDINECETTNECWEDEMCWNYHGGFRCYPRNPCQDPYILTPENRCVCPVSNAMCRELPQSIVYKYMSIRSDRSVPSDIFQIQATTIYANTINTFRIKSGNENGEFYLRQTSPVSAMLVLVKSLSGPREHIVDLEMLTVSSIGTFRTSSVLRLTIIVGPFSF [R345W], the “effect of a mutation on the interaction” value was “with no effect”.

A further experiment covers variants of B6. Particulars: with ccm2_human CCM2, Q9BSQ5.
ccm2_human CCM2, Q9BSQ5, sequence (Q9BSQ5 whole entry): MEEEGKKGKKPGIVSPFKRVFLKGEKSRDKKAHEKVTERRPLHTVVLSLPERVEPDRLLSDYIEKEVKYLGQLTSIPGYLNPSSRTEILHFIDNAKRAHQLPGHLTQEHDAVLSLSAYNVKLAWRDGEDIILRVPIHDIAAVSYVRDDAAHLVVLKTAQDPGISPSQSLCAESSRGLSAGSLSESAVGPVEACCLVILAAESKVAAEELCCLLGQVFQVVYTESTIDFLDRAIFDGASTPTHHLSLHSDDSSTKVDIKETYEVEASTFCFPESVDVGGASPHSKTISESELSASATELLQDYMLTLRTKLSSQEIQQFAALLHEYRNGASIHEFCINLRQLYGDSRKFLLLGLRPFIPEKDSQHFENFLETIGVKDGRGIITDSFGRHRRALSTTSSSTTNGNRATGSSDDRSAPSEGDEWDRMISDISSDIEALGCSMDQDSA
For the variant D137G, the “effect of a mutation on the interaction” value is recorded as “with no effect”.
